Test: yeast display, Sf9 membrane polyspecificity reagent, FACS + sequencing; frameworks hold sequencing errors
Method in brief: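 After 36–48 hours of galactose induction, yeast (Saccharomyces cerevisiae BJ5465) displaying a synthetic nanobody library were stained at 4 °C for 1 hour with 10% biotinylated, detergent-solubilized Sf9 membrane reagent. Streptavidin microbeads enriched the stained cells before FACS sorting into low and high (top ~1%) gates on anti-HA and streptavidin fluorescence. Each clone's polyreactivity label reflects its gate of origin.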

Row | Sequence | polyreactivity (PSR sort gate)
1 | QVQLVESGGGLVQAGGSLRLSCAASGRTFPYNAMGWYRQAPGKERELVAVISSSGGSTYYADSVKGRFTISRDNAKNTVYLQMNSLKPEETAVYYCNTRPYYYRRPGYRYSGYDYWGQGTQVTVSS | high polyreactivity
2 | QVQLVESGGGLVQAGGSLRLSCAASGFTFEWYTMGWYRQAPGKERELVADISGDGTTYYADSVKGRFTISRDNAKNTLYLQMNSLKPEDTAVYYCAARTVGRKAGFDYWGQGTQVTVSS | high polyreactivity
3 | QVQLEESGGGLVQAGGSLRLSCAASGRIFGWYTMGWYRQAPGKERELVAAINFSGSRTYYADSVKGRFTISRDNAKNTVYLQMNSLKPEDTAVYYCNAVYHQFREEYWGQGTQVTVSS | high polyreactivity
4 | QVQLVESWGGLVQAGGSLRLSCAASGFIFSRYAMGWYRQAPGKERELVAAISSRGGSTYYADSVKGRFTISRDNAKNTVYLQMNSLKPEDTAVYYCAKSSPTPHYYWGQGTQVTVSS | high polyreactivity
5 | QVQLVESGGGLVQAGGSLRLSCAASGSILWLNAMGWYRQAPGKERELVADITRGGSTYYADSVKGRFTISRDNAKNTVYLQMNSLKPEDTAVYYCAAKRGKTYQRFDYWGQGTQVTVSS | high polyreactivity
6 | QVQLEESGGGLVQAGGSLRLSWAASGRTIAAYAMGWYRQAPGKERELVAAISIGGSTNYADSVKGRFTISRDNAKNTVYLQMNSLKPEDTAVYYCAAPRRRYLRARIRYEYWGQGTQVTVSS | high polyreactivity
7 | QVQLVESGGRLVQAGGSLRLSCAASGRILRQYTMGWYRQAPGKERELVAGITGSDSSTYYADSVKGRFTISRDNAKNTVYFQMNSLKPEDRAVYYCGTYRWGTLASIYYYWGQGPQVTVSS | low polyreactivity
8 | QVQLVESGGGLVQAGGSLRLSCAASGSIFSSYTMGWYRQAPGKERELVASITSGDSTNYADSVKGRFTISRDNAKNTVYLQMNSLKPEDTAVYYCNKSTLGVPVYEVIFEYWGQGTQVTVSS | low polyreactivity
9 | QVQLVESGGGLVQAGGSLRLSCAASGSIFTGNAMGWYRPAPGKERELVAAISSSGGSTYYADSVKGRFTISRDNSKNTVYLQMNSLKPEDTAVYYSAAYNYFLQYDYWGHGTQVTVSS | low polyreactivity
10 | QVQLVESGGGLVQAGGSLLLICAASGSILGTNAMGWYRQAPGKERELVAAISSSGRTSYADSVKGRFTISRDNAKNTVSLQMNSLKPEDTAVYYCNASNYIVLIIDPDAAPWLYDYWGQGTQVTVSS | low polyreactivity
11 | QVQLVESGRGLVQAGGSLRLSCAASGSTFNRNAMGWYRQAPGKERELVAAITIRGGSTSYADSVKGRFTISRDNAKNTVYLQMNSLKPEDTAVYYCNRQSRNAGGYYWGQGTHVTVSS | low polyreactivity
12 | QVQLVESGGGLVQAGGSLRLSCAASGSTLGRYAMGWYRQAPGKERELVASITWSDDSTYYADSVKGRFTISRDNAKNTVSLQMNSLKPEDTAVYYCAAAANLYTYRFYYWGQGTQVTVSS | low polyreactivity
13 | QVQLVESVGGLVQAGGSLRLSCPASGFTFKYYAMGWYRQAPGKEREFVAAISRSGGSTTYADSVKGRFTISRDNAKNTVYLQMNSLKPEDTAVYYCAVAYYTAYTPRDGEYWGQGTQVTVSS | high polyreactivity
14 | QVQLVESGGGLVQAGGSLRLSCAASGSIFRSYAMGWYRQAPGKERELVASISRRGGSTYYADSVKGRFTISRDNAKNTVYLQMNSLKLEDTAVYYCAAVRYNSRVSTTPSEMYYWGQGTQVTVSS | low polyreactivity
15 | QVQLVESGGGLVQAGGSLRLSCAASGFMFSRYAMGWYRQAAGTERELVAAITSSGGRTYYADSVKGRFTISRDNAKNTVYLQMTSLKPEDTAVYYCNADLGSWYTWFDYWGQGTQVTVSS | high polyreactivity
16 | QEQLVESGGGLVQAGGSLRLICPASGSIFNIYAMPWSRQAPGKERELVATITGIADSTYYADSVKGRFTISRDNAMNTVYLQMNSLKPEDTAVYYCAAEKYVAEYDYWGHGTQVTVSS | low polyreactivity
17 | QVQLVESGGGLVQAGGSLRLSCAASGSTFRFYALGWSRQAPGKERELVAAINGSGGSTYYADSVKGRFTISRDNAKNTVYLQMNSLKPEDTAVYYCAATYYILYTSWDEYWGQGTQVTVSS | low polyreactivity
18 | QVQLVESGGGLDQAGGSLRLSCAASGSIFSHYAMGWYRQAPGKERELVAAISRSGGSTYYADSVKGRFTISRDNAKNTVYLQMNSLKPDDTAVYYCSKEGDSGYWFDYWGQGTQVTVSS | low polyreactivity
19 | QVHLVESAGCLVQAGGSLRLSCAASGSIIYLYAMGWYRQAPGKERELVAAISSGGSTNYADSVKGRFTISRDNAKNSVYLQMNSLKPEDTAVYYCAATLPGWYNEYDSWGQGTQVTVSS | low polyreactivity
20 | QVQLVESGGGLVQAGGSLRLSCAASGRTFTVYAMGWYRQAPGKEREFVATISRSGGSTYYADSVKGRFTISRDNAKNTVYLQMNSLKPEDTAVYYCAARRSGRKYDYWGQGTQVTVSS | high polyreactivity
21 | QVQLVESGGGLVQAGGSLRLSCAASGRTFGIYAMGWYRQAPGKERELVASISWSGGRTYYADSVKGRFTLSRDNAKNTVYLQMNSLKPEDTAVYYCAAYGVYYPRSWQYFDWYGYWGQGTQVTVSS | high polyreactivity
22 | QVQLVESGGGLVQEGGSLRLSCAASGFIFDGNAMGWYRQAPGKERELVAAMSWDGGTYYADSVKGRFTISRDNAKNTVYLQMNSLKPEDTAVYYCAAEQTQLYSFGWDEYWGQGTQVTVSS | low polyreactivity

Row | Sequence | polyreactivity (PSR sort gate)
23 | QVQPQERGGGPVQACGSLRLSCAARGNILDADILGWYRLVPGKEGELVASITDGGSTNYAESVKGRFTLSRDNAINTVYHHMNSLKPEDTAVYYCAANARSHAEHDYWGQGTQVTVSS | low polyreactivity
24 | QVQLVESWGRLVQAGGSLRLTCAASGFIFSSYAMGWYRQAPGKERELVAAISQSGGRTYYADSVKGRFTISRDNAKNTVYLQMNSLKPEDTAVYYCNTLYTIGAVYYWGQGTQVTVSS | high polyreactivity
25 | QVQLVESGGGLVQAGGSLRLSCAASGRTFNRYGMGWYRQAPGKERELVASITSGGSTNYADSVKGRFTISRDNAKNTVYLQMNSLKPEDTAVYYCAKRSIGRYPRTYDYWGQGTQVTVSS | low polyreactivity
26 | QVQLVESGGGLVQAGGSLRLSCAASGRTFGAYTMGWYRQAPGKERELVAAINWSGGDTYYADSVKGRFTISRDNAKNTVYLQMNSLKPEDTAVYYCNAEPRYGTYDYWGQGTQVTVSS | low polyreactivity
27 | QVQLVESGGGLVQAGGSLRLSCAASGSILYLYAMGWYRPAPGKERELVAAITRIGGSTYYADSVKGRFTISRDNAKNTVYLQMNSLKPEDTAVYYCAAGGTARDDSWGQGTQVTVSS | low polyreactivity
28 | HVQLVESGGGLVQAGGSLRLSCAASGSTFNINAMVWYRQAPGKERELFAAISWSGDITYYADSVKGRFTISRDNAKNTVYLLMISLKPEDTAVYYCNTDDPGNYWYAEYDYWGQGTQVTVSS | low polyreactivity
29 | QVQLVESGGGLVQAGGSLRLSCAASGFIFNWYAMGWYRQAPGKERELVAAITSGGSTNYADSVKGRFTISRDNAKNTVYLQMNSLKTEDTAVYYCAARHWRRYGYWGQGTQVTVSS | high polyreactivity
30 | QVQLVESGGGLVQEGGSLRLSCAASGRIFTPYAMGWYRQAPGKERELVAVIRDGSTYYADSVKGRFTISRDNAKNTVYLQMNSLKPEDTAVYYCRYDIWVWWSGAYDYWGQGTQVTVSS | low polyreactivity
31 | QVQLVESGGGLVQAGGSLRLSCAASGFIFRFNAMGWYRQAPGKEREMVAAISWRGGSTYYADSVKGRFTISRDNAKNTVYLQMNSLKPEDTAVYYCAADVTRYYRYGYNYWGQGSQVTVSS | high polyreactivity
32 | QVQLVESGGGLVQAGGRLRLSCAASGSIFNYYARGWYRQAPGKERELVAAIPTSGGNPYYADSVKGRFTISRDNAKNTVKLQMNSLKPEDTALYNCAADYWASGGEYDYWGQGTQVTVSS | low polyreactivity
33 | QVQLVESGGGLVQAGGSLRLSCAASGFIFSKYGMGWYRQAPGKERELVAAISIRGGNTYYADSVKGRFTISRDNAKNTFYLQMYSLKPEDTAVYYCAAGLRAYPYGTRSGVYYYWGQGTQVTVSS | high polyreactivity
34 | QVQLQESVGGLVQAGGSLRLSCAASGNIFPTDRMGWYRQAPGKELEFVATISHGGSTNYADSVKGRFTISRDNAKNTVYLQMNSLKPEDTAVFYCAVWSLGRWRHYYWGQGTQVTVSS | low polyreactivity
35 | QVQLVESGGCLVQAGGSLRLSCAASGRTFNYKAMGWYRQAPGKERELVAAINYSGDSTYYADSVKGRFTISRDNAKNTVYLQMNSLQPEDTAVYYCNADDYWYYYRYGYWGQGTQVTVSS | low polyreactivity
36 | QVQLVESGGGLVQAGGILRLSCAASGSTFNDYAMGRYRQAPGKERELVAAISASGSITYYADSVKGRFTISRDIAKNTVNLQMISLKPEDTAVYYCNARGYRGYDYWGQGTQVTVSS | high polyreactivity
37 | QVQLVESGGGLVQAGGSLRLSCAASGSTFYGYAMGWYRQAPGKERELVAAISVRAGITYYADSVKGRFTISRDNAKNTVYLQMNSLKPEDTAVYYCAKDHWTTSYDEGDYWGQGTQVTVSS | low polyreactivity
38 | QVQLVDSGGRLEQAGGSLRLSCAASGSIFGWNAMGWYRQAPGKERELVAAINWTGGTTYYADSVKGRITISRDNAKYTVYLQMKSLKPADTAVYYCAARLTYHVAGQITRYYYWGQGTQVTVSS | low polyreactivity
39 | QVQLVESGGGLVQAGGSLRLSCAASGSTFRFYAMGWYRQAPGKEREFVAAISTSGGSTYYADSVKGRFTISRDNAKNTVYLQMISLKPEETAVYYCATRRRIRSSFYYDNDYWGLGTQVTVSS | high polyreactivity
40 | QVQLVESGGGLVQAGGSLRLSCAASGRTFDYYVMGWYRQAPGKERELVAAISRRGGSTYYADSVKGRFTISRDNAKNTVYLQMNSLKPEDTAVYYCAAQYYYAREDYWGQGTQVTVSS | high polyreactivity
41 | QVQLVESGGGLVQAGGSLRLSCAASGFTFTYYTMGWYRQAPGKERELVAAISWSGSSTYYADSVKGRFTISRDNAKNTVYLQMNSLKPEDTAVYYCAAKYRGKYYYWGQGTQVTVSS | high polyreactivity
42 | QVQLVESGGGLVQAGGSLRLSCAASGRTFHYYAMGWYRQAPGKERELVAGITGGGSTYYADSVKGRFTISRDNAKNTVYLQMNSLKPEDTAVYYCNARPYWFGSYGYWGQGTQVTVSS | low polyreactivity
43 | QVQLVESGGGLVQAGGSRRLSCAASGSIFYLYAMGWSRQAPGKERELVATITWSGGSTYYADSVKGRFTISRDTAKNTVYLQMNSLKPEDTAVYYCAATALEWYPAVYNQYYYWGQGTQVTVSS | low polyreactivity

From the nanobody polyreactivity screen of Harvey et al. (2022)
